Legend:
[1] = target: human kappa opioid receptor Tango construct (tTA-hKOR) (human) (UniProt P41145)
[2] = target: human kappa opioid receptor fused to the alpha7 nicotinic signal peptide and eGFP (pcDNA3.1) (human) (UniProt P41145)
[3] = target: human kappa opioid receptor, stably expressed in CHO cells (hKOR-CHO) (human) (UniProt P41145)
Chain of human kappa opioid receptor, stably expressed in CHO cells (hKOR-CHO) (human) (P41145 whole entry): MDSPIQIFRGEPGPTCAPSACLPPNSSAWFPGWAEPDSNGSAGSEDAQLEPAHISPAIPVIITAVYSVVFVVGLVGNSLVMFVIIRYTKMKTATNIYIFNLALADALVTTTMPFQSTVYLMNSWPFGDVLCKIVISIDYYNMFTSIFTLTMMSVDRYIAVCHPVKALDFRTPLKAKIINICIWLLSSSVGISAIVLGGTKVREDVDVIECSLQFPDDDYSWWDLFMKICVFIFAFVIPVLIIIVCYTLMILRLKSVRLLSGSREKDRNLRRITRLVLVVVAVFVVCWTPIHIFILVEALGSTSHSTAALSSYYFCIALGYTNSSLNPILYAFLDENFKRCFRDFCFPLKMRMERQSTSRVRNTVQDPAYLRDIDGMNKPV

Chain of human kappa opioid receptor Tango construct (tTA-hKOR) (human) (P41145 whole entry, the tested form may be a part): as the sequence (P41145 whole entry) above
Chain of human kappa opioid receptor fused to the alpha7 nicotinic signal peptide and eGFP (pcDNA3.1) (human) (P41145 whole entry, the tested form may be a part): as the sequence (P41145 whole entry) above

Dynorphin A L5S mutant peptide
PRESTO-Tango β-arrestin recruitment: fold shift of EC50 against the mean of same day DynA WT controls [1]: 13 fold shift | TRUPATH (BRET) G-protein dissociation, Gα3 subunit: fold shift of EC50 against the mean of same day DynA WT controls [2]: 7 fold shift

Dynorphin A R6W mutant peptide
EC50 of [35S]GTPγS binding to hKOR-CHO cell membranes (G-protein activation) [3]: 105 nM | efficacy (maximal [35S]GTPγS binding to hKOR-CHO cell membranes) [3]: 1240 CPM | PRESTO-Tango β-arrestin recruitment: fold shift of EC50 against the mean of same day DynA WT controls [1]: 16 fold shift | TRUPATH (BRET) G-protein dissociation, Gα3 subunit: fold shift of EC50 against the mean of same day DynA WT controls [2]: 11 fold shift

Dynorphin A R9C mutant peptide
PRESTO-Tango β-arrestin recruitment: fold shift of EC50 against the mean of same day DynA WT controls [1]: 5 fold shift | TRUPATH (BRET) G-protein dissociation, Gα3 subunit: fold shift of EC50 against the mean of same day DynA WT controls [2]: 3 fold shift

From publication PMC8698333
